Measurements published in patent US20020055130.

Experiments:
[1] = target: T1, purified recombinant MEKK1 NH2-terminal fusion protein (50 kD) (UniProt P53349)
T1 sequence: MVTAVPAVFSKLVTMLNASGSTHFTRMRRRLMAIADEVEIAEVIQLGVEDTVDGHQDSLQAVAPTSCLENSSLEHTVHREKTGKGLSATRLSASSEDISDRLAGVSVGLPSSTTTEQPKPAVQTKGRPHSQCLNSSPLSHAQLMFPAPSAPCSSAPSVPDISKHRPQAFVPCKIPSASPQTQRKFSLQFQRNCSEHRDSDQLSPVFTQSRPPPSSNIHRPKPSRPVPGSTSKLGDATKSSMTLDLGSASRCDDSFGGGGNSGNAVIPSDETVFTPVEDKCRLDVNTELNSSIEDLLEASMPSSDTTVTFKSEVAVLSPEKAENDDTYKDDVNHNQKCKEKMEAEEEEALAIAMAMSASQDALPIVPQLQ

[2] = system: purified recombinant catalytically inactive MEK-1

98 kD MEKK protein (98 kD MEKK1) of PC12, Rat1a, NIH3T3 and Swiss3T3 cells
phosphorylation of the MEKK1 NH2-terminal fusion protein by immunoprecipitates (in vitro kinase assay) [1]: MEKK1 immunoprecipitated from lysates of EGF-stimulated and unstimulated PC12 cells robustly phosphorylated the inert 50 kD MEKK1 NH2-fusion protein
phosphorylation of kinase inactive MEK-1 by Mono Q fractions (in vitro kinase assay) [2]: Fractions 10-14 of lysate from PC 12 cells treated with EGF phosphorylated MEK-1
